From patent US20230073274A1 (NOVELMED THERAPEUTICS, published 2023)
Like-named read-outs stand apart in the source and are kept apart here.

Experiments:
human properdin [1] = biological target: T1, human properdin (human, UniProt P27918 28-469); assay: cell-based or functional assay
human properdin [2] = biological target: T1, human properdin; assay: ELISA, human properdin coated on plate
Protocol: (§1) Polystyrene microtiter plates were coated with human (2.0 μg/50 μl per well) properdin in phosphate buffered saline (PBS) overnight at 4° C. After aspirating the properdin solution, the wells were blocked with PBS containing 1% bovine serum albumin (BSA) (Sigma-Aldrich, St. Louis, Mo.) for 2 hours at room temperature. Wells without peptide or properdin coating served as background controls. Aliquots of the test antibody in blocking solution were added to the properdin coated wells and allowed to incubate for 1 hour to allow binding to occur. Following a 1 hour incubation at room temperature, the plate was rinsed with PBS five times and incubated with 1:2000 diluted anti-properdin polyclonal antibody.

human properdin [3] = biological target: T1, human properdin; assay: cell-based or functional assay; remark: listed apart in the source
human properdin [4] = biological target: T1, human properdin; assay: cell-based or functional assay; remark: listed apart in the source
human properdin [5] = biological target: T1, human properdin; assay: ELISA, human properdin coated on the plate, OD 450 nm
Protocol: as §1

human properdin [6] = biological target: T1, human properdin; assay: cell-based or functional assay; remark: listed apart in the source
human properdin [7] = biological target: T1, human properdin; assay: ELISA, properdin coated on the plate, OD 450 nm
human properdin [8] = biological target: T1, human properdin; assay: ELISA, properdin coated on the plate, OD 450 nm; remark: listed apart in the source
human properdin [9] = biological target: T1, human properdin; assay: cell-based or functional assay; remark: listed apart in the source
human properdin [10] = biological target: T1, human properdin; assay: cell-based or functional assay; remark: listed apart in the source

T1 sequence (P27918 28-469 limits assumed): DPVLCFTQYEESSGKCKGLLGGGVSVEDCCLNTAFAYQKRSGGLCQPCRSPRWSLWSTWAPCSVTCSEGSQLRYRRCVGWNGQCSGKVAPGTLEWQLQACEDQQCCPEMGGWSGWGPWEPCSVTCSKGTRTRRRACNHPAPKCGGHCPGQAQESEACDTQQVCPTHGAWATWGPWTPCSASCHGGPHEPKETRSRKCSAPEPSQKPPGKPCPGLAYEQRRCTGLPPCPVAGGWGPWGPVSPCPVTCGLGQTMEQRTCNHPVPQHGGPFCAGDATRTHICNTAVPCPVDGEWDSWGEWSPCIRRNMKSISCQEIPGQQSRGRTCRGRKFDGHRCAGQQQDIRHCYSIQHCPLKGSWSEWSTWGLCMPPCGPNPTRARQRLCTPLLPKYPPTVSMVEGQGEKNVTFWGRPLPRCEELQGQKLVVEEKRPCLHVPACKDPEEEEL

Binder | IC50 (read off the curve): properdin deposition (AP activation on LPS, 10% normal human serum) (human properdin [1]) [µg/mL] | Binding Affinity (human properdin [2]) [pM] | MAC (µg/Ml); inhibition of MAC formation (human properdin [4]) [µg/mL] | Properdin (µg/mL); inhibition of properdin deposition (human properdin [4]) [µg/mL] | EC50 (read off the curve) (human properdin [5]) [nM] | IC50 (read off the curve): C3b deposition (sheet title: LPS C3b 10% NHS) (human properdin [10]) [µg/mL] | further results
NMT15 (antibody, V domains shown) VH: QVQLVQSAPEVAKPGTSVKMSCKASGYIFTNYPIHWVKQAPGQGLEWIGFIDPGGGYDEPDERFRDRATLTADKSTSTAYMELSSLRSEDTAIYYCARRGGGYYLDYWGQGTLVTVSS VL: DIQMTQSPSSLSASLGDRVTITCRASQDISFFLNWYQQKPDGTVKLLIYYTSRYHSGVPSRFSGSGSGTDFTLTISSLQPEDFATYFCQHGNTLPWTFGQGTKLEIK | ~0.8 | 270 | 1 | 2 | 0.2 to 0.3 | – | IC50 (read off the curve): C3b deposition (AP activation on LPS, normal human serum) (human properdin [3]): ~0.5 µg/mL; IC50 (read off the curve): properdin deposition (AP C3 convertase formation assay) (human properdin [6]): ~0.4 µg/mL
NMT18 (antibody, V domains shown) VH: EVQLVQSGAEVKKPGASVKVSCKASGYIFTNYPIHWVRQAPGQGLEWMGFIDPGGGYDEPDERFRDRVTMTADTSTSTAYMELSSLRSEDTAVYYCARRGGGYYLDYWGQGTTVTVSS VL: DIQMTQSPSSLSASVGDRVTITCRASQDISFFLNWYQQKPGKAPKLLIYYTSRYHSGVPSRFSGSGSGTDFTLTISSLQPEDFATYYCQHGQTLPWTFGQGTKLEIK | ~0.9 | 289 | 9 | 3 | ~0.3 | – | IC50 (read off the curve): C3b deposition (AP activation on LPS, normal human serum) (human properdin [3]): ~0.5 µg/mL
NMT28 (antibody, V domains shown) VH: EVQLVQSGAEVKKPGASVKVSCKASGYIFTNYPIHWVRQAPGQGLEWMGFIDPGGGYDEPDERFRDRVTMTADTSTSTAYMELSSLRSEDTAVYYCARRGGGYYLDYWGQGTLVTVSS VL: DIQMTQSPSSLSASVGDRVTITCRASQDISFFLNWYQQKPGKAPKLLIYYTSRYHSGVPSRFSGSGSGTDFTLTISSLQPEDFATYYCQHGQTLPWTFGQGTKVEIK | – | – | – | – | – | – | EC50 (read off the curve) (human properdin [7]): ~0.06 nM; IC50 (read off the curve): C3b deposition (AP C3 convertase formation assay) (human properdin [6]): ~0.3 µg/mL; IC50 (read off the curve): properdin deposition (AP C3 convertase formation assay) (human properdin [6]): ~0.3 µg/mL
NMT17 (antibody, V domains shown) VH: EVQLVQSGAEVKKPGASVKVSCKASGYIFTNYPIHWVRQAPGQGLEWMGFIDPGGGYDEPDERFRDRVTMTADTSTSTAYMELSSLRSEDTAVYYCARRGGGYYLDYWGQGTTVTVSS VL: DIQMTQSPSSLSASVGDRVTITCRASQDISFFLNWYQQKPGKAPKLLIYYTSRYHSGVPSRFSGSGSGTDFTLTISSLQPEDFATYYCQHGSTLPWTFGQGTKLEIK | ~0.9 | 283 | 5 | 4 | ~0.3 | – | IC50 (read off the curve): C3b deposition (AP activation on LPS, normal human serum) (human properdin [3]): ~0.7 µg/mL
NMT16 (antibody, V domains shown) VH: EVQLVQSGAEVKKPGASVKVSCKASGYIFTNYPIHWVRQAPGQGLEWMGFIDPGGGYDEPDERFRDRVTMTADTSTSTAYMELSSLRSEDTAVYYCARRGGGYYLDYWGQGTTVTVSS VL: DIQMTQSPSSLSASVGDRVTITCRASQDISFFLNWYQQKPGKAPKLLIYYTSRYHSGVPSRFSGSGSGTDFTLTISSLQPEDFATYYCQHGNTLPWTFGQGTKLEIK | ~1 | 315 | 3 | 4 | 0.3 to 0.4 | – | –
NMT31 (antibody, V domains shown) VH: EVTLKESGPTLVKPTQTLTLTCTFSGFSLSTSGMGVGWIRQPPGKALEWLAHIWWDDVKSYNPALKSRLTITKDTSKNQVVLTMTNMDPVDTATYYCARIGDGYYSFDYWGQGTTVTVSS VL: DIQMTQSPSSLSASVGDRVTITCRASQDVSDAVAWFQQKPGKAPKLLIYSPSYRYTGVPSRFSGSGSGTDFTFTISSLQPEDLATYYCQQHYSTPWTFGQGTKLEIK | – | – | – | – | – | – | EC50 (read off the curve) (human properdin [8]): ~0.06 nM; IC50 (read off the curve): C3b deposition (sheet title: LPS C3b 10% NHS) (human properdin [9]): ~0.7 µg/mL
NMT31-101 (antibody, V domains shown) VH: EVTLKESGPTLVKPTQTLTLTCTFSGFSLSTSGMGVGWIRQPPGKALEWLAHIWWDDVKSYNPALKSRLTITKDTSKNQVVLTMTNMDPVDTATYYCARIGDGYYSFDYWGQGTTVTVSS VL: DIQMTQSPSSLSASVGDRVTITCRASQDVSDAVAWFQQKPGKAPKLLIYSPSYRYTGVPSRFSGSGSGTDFTFTISSLQPEDLATYYCQQHYSTPWTFGQGTKLEIK | – | – | – | – | – | ~0.5 | –
NMT31-100 (antibody, V domains shown) VH: EVTLKESGPTLVKPTQTLTLTCTFSGFSLSTSGMGVGWIRQPPGKALEWLAHIWWDDVKSYNPALKSRLTITKDTSKNQVVLTMTNMDPVDTATYYCARIGDGYYSFDYWGQGTTVTVSS VL: DIQMTQSPSSLSASVGDRVTITCRASQDVSDAVAWFQQKPGKAPKLLIYSPSYRYTGVPSRFSGSGSGTDFTFTISSLQPEDLATYYCQQHYSTPWTFGQGTKLEIK | – | – | – | – | – | ~0.5 | –
NMT29 (antibody, V domains shown) VH: EVTLKESGPTLVKPTQTLTLTCTFSGFSLSTSGMGVGWIRQPPGKALEWLAHIWWDDVKSYNPALKSRLTITKDTSKNQVVLTMTNMDPVDTATYYCARIGDGYYSFDYWGQGTTVTVSS VL: DIQMTQSPSSLSASVGDRVTITCRASQDVSDAVAWYQQKPGKAPKLLIYSPSYRYTGVPSRFSGSGSGTDFTLTISSLQPEDFATYYCQQHYSTPWTFGQGTKLEIK | – | – | – | – | – | – | EC50 (read off the curve) (human properdin [8]): ~0.05 nM; IC50 (read off the curve): C3b deposition (sheet title: LPS C3b 10% NHS) (human properdin [9]): ~0.9 µg/mL
NMT30-101 (antibody, V domains shown) VH: EVTLKESGPTLVKPTQTLTLTCTFSGFSLSTSGMGVGWIRQPPGKALEWLAHIWWDDVKSYNPALKSRLTITKDTSKNQVVLTITNVDPVDTATYYCARIGDGYYSFDYWGQGTTLTVSS VL: DIQMTQSPSSLSASVGDRVTITCRASQDVSDAVAWFQQKPGKAPKLLIYSPSYRYTGVPSRFSGSGSGTDFTFTISSLQPEDFATYYCQQHYSTPWTFGQGTKLEIK | – | – | – | – | – | ~0.6 | –
NMT30 (antibody, V domains shown) VH: EVTLKESGPTLVKPTQTLTLTCTFSGFSLSTSGMGVGWIRQPPGKALEWLAHIWWDDVKSYNPALKSRLTITKDTSKNQVVLTITNVDPVDTATYYCARIGDGYYSFDYWGQGTTLTVSS VL: DIQMTQSPSSLSASVGDRVTITCRASQDVSDAVAWFQQKPGKAPKLLIYSPSYRYTGVPSRFSGSGSGTDFTFTISSLQPEDFATYYCQQHYSTPWTFGQGTKLEIK | – | – | – | – | – | – | EC50 (read off the curve) (human properdin [8]): ~0.04 nM; IC50 (read off the curve): C3b deposition (sheet title: LPS C3b 10% NHS) (human properdin [9]): ~0.4 µg/mL
NMT30-100 (antibody, V domains shown) VH: EVTLKESGPTLVKPTQTLTLTCTFSGFSLSTSGMGVGWIRQPPGKALEWLAHIWWDDVKSYNPALKSRLTITKDTSKNQVVLTITNVDPVDTATYYCARIGDGYYSFDYWGQGTTLTVSS VL: DIQMTQSPSSLSASVGDRVTITCRASQDVSDAVAWFQQKPGKAPKLLIYSPSYRYTGVPSRFSGSGSGTDFTFTISSLQPEDFATYYCQQHYSTPWTFGQGTKLEIK | – | – | – | – | – | ~0.6 | –
